The source of these data is patent US20110236900, “NOVEL MUTS PROTEIN AND METHOD FOR DETERMING MUTATION USING THE SAME” (RIKEN, published 2011).

In series [1] the test system is T1, Aac MutS (Alicyclobacillus acidocaldarius subsp. acidocaldarius JCM5260).
T1 sequence: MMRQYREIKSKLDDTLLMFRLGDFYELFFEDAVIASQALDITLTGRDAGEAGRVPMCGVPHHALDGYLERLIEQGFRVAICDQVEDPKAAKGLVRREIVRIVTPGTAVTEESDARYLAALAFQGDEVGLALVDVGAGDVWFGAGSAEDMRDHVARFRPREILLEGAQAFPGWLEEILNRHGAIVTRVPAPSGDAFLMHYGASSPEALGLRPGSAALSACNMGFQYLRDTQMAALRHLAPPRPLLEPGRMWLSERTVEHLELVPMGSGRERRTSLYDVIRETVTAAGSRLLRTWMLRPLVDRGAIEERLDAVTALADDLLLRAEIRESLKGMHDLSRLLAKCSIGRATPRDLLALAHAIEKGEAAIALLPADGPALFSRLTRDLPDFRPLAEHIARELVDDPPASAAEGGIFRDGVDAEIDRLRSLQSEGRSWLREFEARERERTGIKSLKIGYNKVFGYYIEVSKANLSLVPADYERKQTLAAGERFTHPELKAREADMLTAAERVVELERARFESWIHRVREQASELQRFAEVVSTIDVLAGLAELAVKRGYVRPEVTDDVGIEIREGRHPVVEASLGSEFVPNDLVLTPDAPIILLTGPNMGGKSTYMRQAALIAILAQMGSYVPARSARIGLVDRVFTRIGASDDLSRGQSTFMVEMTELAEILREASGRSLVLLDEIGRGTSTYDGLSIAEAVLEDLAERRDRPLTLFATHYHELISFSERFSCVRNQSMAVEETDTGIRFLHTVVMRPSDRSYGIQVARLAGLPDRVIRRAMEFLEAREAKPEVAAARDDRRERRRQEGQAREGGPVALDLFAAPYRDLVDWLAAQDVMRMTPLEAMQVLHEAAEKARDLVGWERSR
Put plainly: SPR. The following applies: 20 mM MgCl2.

In series [2] the target is T2, Taq MutS (Thermus aquaticus, UniProt Q56215 Q56215:1-811).
T2 sequence: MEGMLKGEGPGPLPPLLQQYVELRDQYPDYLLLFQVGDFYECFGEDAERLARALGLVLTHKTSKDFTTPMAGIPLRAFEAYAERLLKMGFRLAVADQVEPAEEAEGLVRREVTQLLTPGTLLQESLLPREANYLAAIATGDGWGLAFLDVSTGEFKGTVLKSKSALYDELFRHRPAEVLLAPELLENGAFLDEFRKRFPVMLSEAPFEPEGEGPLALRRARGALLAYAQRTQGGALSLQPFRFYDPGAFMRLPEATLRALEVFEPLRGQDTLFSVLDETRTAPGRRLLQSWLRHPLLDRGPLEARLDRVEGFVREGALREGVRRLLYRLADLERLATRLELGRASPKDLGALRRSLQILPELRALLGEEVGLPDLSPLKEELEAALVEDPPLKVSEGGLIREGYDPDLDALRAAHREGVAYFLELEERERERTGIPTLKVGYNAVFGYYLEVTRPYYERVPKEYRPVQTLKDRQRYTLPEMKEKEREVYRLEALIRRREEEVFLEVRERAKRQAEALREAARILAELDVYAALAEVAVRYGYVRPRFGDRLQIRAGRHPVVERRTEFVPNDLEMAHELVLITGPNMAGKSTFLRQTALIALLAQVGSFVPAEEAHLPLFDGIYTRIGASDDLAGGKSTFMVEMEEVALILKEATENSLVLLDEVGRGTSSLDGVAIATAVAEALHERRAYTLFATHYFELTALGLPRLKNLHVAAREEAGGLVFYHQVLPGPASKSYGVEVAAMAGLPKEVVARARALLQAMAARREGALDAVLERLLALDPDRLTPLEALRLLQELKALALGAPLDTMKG
The series can be described thus: SPR; Comp. Ex. 1; no nucleotide, 20 mM MgCl2, 50 mM KCl, pH 7.6. The note with it: label: 5'-biotin on T-strand; single G-T mismatch. The procedure:
(§1) The chip was set in BIACORE3000, then the running buffer was passed through a channel of the chip at a flow rate of 10 μL/min, and an experiment was started as follows. First, 5 μmol/L C-strand DNA, 5 μmol/L T-strand DNA, and 5 μmol/L Del-strand DNA as regands were passed through the respective three flow cells contained in the chip at a flow rate of 10 μL/min, and they were bound to each other until the Resonance Unit reached about 150 RU (Resonance Unit). Subsequently, 5 μmol/L of the G-strand DNA was injected into each of the flow cells at a flow rate of 20 μL/min for 2 minutes, and thereafter, the flow cells were washed with the running buffer for 10 minutes. Thus, double-stranded DNAs between the C-strand DNA and the G-strand DNA, between T-strand DNA and the same, and between the Del-strand DNA and the same were formed. Then, an Aac MutS solution with the predetermined concentration (0.1, 0.2, 0.5, 1, 2, or 4 μmol/L) was injected into each of the flow cells at a flow rate of 20 μL/min for 10 minutes, and thereafter, the flow cells were washed with the running buffer for 20 minutes. While injecting and washing, signal intensity was measured from the start of the injection of the Aac MutS. In Comparative Example 1, signal intensity was measured by the same treatment as that of Example 2 using Taq MutS derived from Thermus aquatieus as substitute for the Aac MutS.

The target in series [3] is T3, Aac MutS (Alicyclobacillus acidocaldarius subsp. …).
T3 chain: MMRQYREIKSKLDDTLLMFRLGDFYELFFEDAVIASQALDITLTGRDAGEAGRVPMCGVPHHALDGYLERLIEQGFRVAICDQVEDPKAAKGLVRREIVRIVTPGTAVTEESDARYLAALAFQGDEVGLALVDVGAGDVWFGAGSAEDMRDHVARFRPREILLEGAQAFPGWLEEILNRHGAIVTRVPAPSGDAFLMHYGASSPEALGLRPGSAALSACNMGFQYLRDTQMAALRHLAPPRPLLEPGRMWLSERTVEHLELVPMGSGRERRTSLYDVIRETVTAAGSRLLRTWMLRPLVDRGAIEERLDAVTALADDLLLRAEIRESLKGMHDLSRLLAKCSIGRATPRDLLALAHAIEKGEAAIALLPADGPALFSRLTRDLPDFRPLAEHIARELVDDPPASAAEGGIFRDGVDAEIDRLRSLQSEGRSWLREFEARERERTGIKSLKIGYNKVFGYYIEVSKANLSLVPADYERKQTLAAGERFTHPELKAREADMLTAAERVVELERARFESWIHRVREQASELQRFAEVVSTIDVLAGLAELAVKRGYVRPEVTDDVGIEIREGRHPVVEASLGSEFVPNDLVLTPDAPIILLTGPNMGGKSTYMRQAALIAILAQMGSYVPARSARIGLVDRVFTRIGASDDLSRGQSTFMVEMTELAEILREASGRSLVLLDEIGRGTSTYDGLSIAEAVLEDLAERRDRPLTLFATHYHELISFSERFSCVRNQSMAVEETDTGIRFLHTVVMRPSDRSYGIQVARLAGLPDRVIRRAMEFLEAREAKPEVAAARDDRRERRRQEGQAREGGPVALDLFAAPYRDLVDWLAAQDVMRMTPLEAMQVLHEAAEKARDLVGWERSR
The series can be described thus: SPR; Example 2; no nucleotide, 20 mM MgCl2, 50 mM KCl, pH 7.6. The note with it: tags: none stated (pET17b, E. coli BL21-CodonPlus(DE3)RIL); chain copies: 2 stated; label: 5'-biotin on T-strand; single G-T mismatch. The procedure: as §1

Series [4] has as its target T3, Aac MutS. The series can be described thus: SPR; Example 3-1; 1 mM ADP, 20 mM MgCl2, 50 mM KCl, pH 7.6. The following applies: tags: none stated (pET17b, E. coli BL21-CodonPlus(DE3)RIL); chain copies: 2 stated; label: 5'-biotin on T-strand; single G-T mismatch. The procedure: as §1, with “Then, an Aac MutS solution with the predetermined concentration (0.1, 0.2, 0.5, 1, 2, or 4 μmol/L) was injected into each of the flow cells at a flow rate of 20 μL/min for 10 minutes, and thereafter, the flow cells were washed with the running buffer for 20 minutes.” left out
(§2) The signal intensity was measured in the same manner as in Example 2 except that 1 mmol/L ADP or ATP was added to the running buffer of Example 2. […] In Comparative Example 2, the signal intensity was measured using the Taq MutS in the same manner as in Example 3. […]

Series [5] has as its target T2, Taq MutS. The series can be described thus: SPR; Comp. Ex. 2-1; 1 mM ADP, 20 mM MgCl2. The procedure: as §1, with “Then, an Aac MutS solution with the predetermined concentration (0.1, 0.2, 0.5, 1, 2, or 4 μmol/L) was injected into each of the flow cells at a flow rate of 20 μL/min for 10 minutes, and thereafter, the flow cells were washed with the running buffer for 20 minutes.” left out
as §2

Series [6] deals with T2, Taq MutS. Put plainly: SPR; Comp. Ex. 1; no nucleotide, 20 mM MgCl2. The note with it: label: 5'-biotin on C-strand. The procedure: as §1

As for “CCGCTGAATTGCACCGAGCTCGATCCTCGATGATCCTAAGCGATCCATG (double strand) [C/G fully-matched duplex]”, the Kd was 65500 nM in series [1] (Example 2, no nucleotide, text says binding not found) and 19800 nM in series [1] (Example 3-1, 1 mM ADP, binding described as sufficiently suppressed).

B1: T/G mismatched duplex (dsDNA)
DNA 1: CCGCTGAATTGCACCGAGCTTGATCCTCGATGATCCTAAGCGATCCATG
DNA 2: CATGGATCGCTTAGGATCATCGAGGATCGAGCTCGGTGCAATTCAGCGG
For the molecule B1, the dissociation constant (Kd) in the series with Taq MutS [2] came out at 622 nM; with Aac MutS [3] it was 1450 nM; with Aac MutS [4], 330 nM; with Taq MutS [5] (label: 5'-biotin on T-strand, single G-T mismatch), 2260 nM.

B2: C/G fully-matched duplex (dsDNA)
DNA 1: CCGCTGAATTGCACCGAGCTCGATCCTCGATGATCCTAAGCGATCCATG
DNA 2: CATGGATCGCTTAGGATCATCGAGGATCGAGCTCGGTGCAATTCAGCGG
For B2, the Kd with Taq MutS [6] was found to be 2270 nM; in the series with Taq MutS [5] (label: 5'-biotin on C-strand), 6580 nM.
